The target in assay [1] is T1, total (intracellular) vimentin of human cancer cells (human, UniProt P08670 2-466).
T1 construct: Endogenous protein in lysates or in permeabilized cells; also called total vimentin; cytoplasmic vimentin
Description: confocal microscopy, intracellular staining.

Assay [2] deals with T2, cell-surface vimentin on canine circulating tumor cells (canine, UniProt A0A8C0N8E3 2-466).
T2 construct: also called CSV
Description: isolation and confocal microscopy of CTC from canine blood.

For assay [3], the target named is vimentin-derived peptides (10, 12 and 15 aa peptides on the peptide microarray). Description: peptide microarray; 84-1 at 0.2 ug/mL compared with 12-1 at 1 ug/mL.
Assay [4] addresses T3, cell-surface vimentin on mouse cancer cells (LM8) (mouse, UniProt P20152 2-466).
T3 construct: whole, on cells; also called CSV
As to the kind of experiment: immunofluorescence staining of mouse LM8 cells spiked into blood. The protocol:
FIG. 2B: Detection of single cell spiked into blood using fluorescence microscopy. Single LM8 cell was isolated using serial dilution and spot analysis and spiked into 1 ml of blood. After RBC lysis, mononucleated cell population was stained for 84-1 mAb and AlexaFluor-488 secondary antibody to detect CSV positive cells. […] FIG. 2C: Isolation of single cell from whole blood. Single cell spiked into whole blood was isolated using EasySep based 84-1 positive and CD45 negative selection. This single cell was observable on the culture dish 2 hr after incubation at 37° C. FIG. 2D: Micrographs of cells isolated from blood were costained using antibodies against CSV, CD45 and a nuclear stain DRAQ5. Scale indicates 10 μm. FIG. 2E: Enumeration of CSV positive CTCs from healthy, primary and metastatic patient blood specimens. Blood from the primary cancer patients was used to select threshold of detection (dashed line).
Based on the detection of CSV in a range of cancer cell lines of both epithelial and non-epithelial origin, the inventors hypothesized that it could serve as a biomarker to detect CTC. […] From micrographs it is evident that single cell is detectable in whole blood utilizing fluorescence microscopy (FIG. 2B). […] The inventors further evaluated the sensitivity and specificity of 84-1 antibody using HLM3 and LM7 cells that are positive for 84-1 staining (Table 5).

Assay [5] concerns the target T4, cell-surface vimentin (CSV) on human cancer cells (human, UniProt P08670 2-466).
T4 construct: whole, on cells; Endogenous vimentin on the surface of non-permeabilized cancer cells
As to the kind of experiment: screening on osteosarcoma cell lines with and without vimentin on the cell surface.

T3 sequence (P20152 2-466): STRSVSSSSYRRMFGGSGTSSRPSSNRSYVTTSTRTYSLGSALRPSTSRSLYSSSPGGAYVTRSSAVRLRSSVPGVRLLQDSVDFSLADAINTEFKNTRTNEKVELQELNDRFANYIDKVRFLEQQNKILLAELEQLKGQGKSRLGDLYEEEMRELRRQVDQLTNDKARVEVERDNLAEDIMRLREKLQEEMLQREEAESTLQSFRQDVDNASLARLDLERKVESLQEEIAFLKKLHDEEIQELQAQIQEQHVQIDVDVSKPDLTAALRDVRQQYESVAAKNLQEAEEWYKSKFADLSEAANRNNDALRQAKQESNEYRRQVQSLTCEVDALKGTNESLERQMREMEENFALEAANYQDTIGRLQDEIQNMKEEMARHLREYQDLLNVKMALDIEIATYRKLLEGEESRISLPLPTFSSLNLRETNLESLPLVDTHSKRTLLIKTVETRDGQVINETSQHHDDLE
T2 sequence (A0A8C0N8E3 2-466 limits assumed): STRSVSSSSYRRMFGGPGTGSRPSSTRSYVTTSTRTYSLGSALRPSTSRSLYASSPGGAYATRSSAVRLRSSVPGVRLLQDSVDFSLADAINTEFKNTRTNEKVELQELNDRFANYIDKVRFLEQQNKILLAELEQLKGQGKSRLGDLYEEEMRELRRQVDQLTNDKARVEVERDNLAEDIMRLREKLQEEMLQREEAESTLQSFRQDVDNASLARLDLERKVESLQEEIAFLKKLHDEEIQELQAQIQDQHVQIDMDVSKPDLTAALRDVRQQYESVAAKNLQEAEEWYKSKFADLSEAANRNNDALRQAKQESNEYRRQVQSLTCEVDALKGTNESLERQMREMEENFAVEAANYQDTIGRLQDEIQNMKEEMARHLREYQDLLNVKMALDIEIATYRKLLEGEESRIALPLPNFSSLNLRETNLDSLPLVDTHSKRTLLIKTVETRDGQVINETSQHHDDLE
T4 sequence (P08670 2-466): as the sequence (A0A8C0N8E3 2-466 limits assumed) above, with G20A, T26S, A59V, S200N, D238E, D250E, M257V, N316T, A411S counted along it
T1 sequence (P08670 2-466 limits assumed): as the sequence (A0A8C0N8E3 2-466 limits assumed) above, with G20A, T26S, A59V, S200N, D238E, D250E, M257V, N316T, A411S counted along it

B1: 84-1 monoclonal antibody (antibody, V domains shown)
VH: QVQLKQSGPGLVQPSQSLSITCTVSGFSLTRYGVHWVRQSPGKGLEWLGVIWSGGSTDYNAAFISRLSFSKDNSKSQVFFKMNSLQANDTAIYYCARRSYYYAMDYWGQGTSVTVS
VL: DVLMTQTPLSLPVSLGDQASISCRSSQSIVHRIGNTYLEWYLQKPGQSPKLLIYKVSNRFSGVPDRFSGSGSGTDFTLKISRVEAEDLGVYYCFQGSHVPLTFGAGTKLEL
notes: Mouse monoclonal antibody from hybridoma 84-1, raised against rhVim with 6-His; It was detected with anti-mouse IgG; also called 84-1 mAb; 84-1 antibody
In the case of B1, the binding result in assay [1], in assay [2], in assay [4] and in assay [5] was “binds” each time. For the same molecule, the spot intensity relative to antibody 12-1 in assay [3] came to 2 fold.

Source of the values: US20160009812A1 (University of Texas, published 2016).
